Data as given in patent US20190010458.

Target: T1, HA-Etv2 (Mus musculus) (UniProt P41163)
T1 sequence: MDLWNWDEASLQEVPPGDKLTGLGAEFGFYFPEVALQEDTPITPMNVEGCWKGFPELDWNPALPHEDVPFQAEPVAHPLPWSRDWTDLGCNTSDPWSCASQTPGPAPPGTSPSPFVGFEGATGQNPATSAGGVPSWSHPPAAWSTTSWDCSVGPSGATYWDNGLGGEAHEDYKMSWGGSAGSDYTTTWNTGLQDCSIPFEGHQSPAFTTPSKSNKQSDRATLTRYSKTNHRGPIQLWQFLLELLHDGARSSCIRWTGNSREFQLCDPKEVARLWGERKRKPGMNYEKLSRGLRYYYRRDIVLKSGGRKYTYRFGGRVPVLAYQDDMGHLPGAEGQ
Settings: ChIP-qPCR with anti-HA, Dox-induced EBs

Work on “miR-130a upstream promoter region (ChIP amplicon)” yielded a binding signal (fold enrichment) of 15.
